1 substance from paper PMC7327021 can be followed below.

For the assay, the target named is CTD1, C-terminal domain of major ampullate spidroin 1 of Latrodectus hesperus (Latrodectus hesperus). Put plainly: non-reducing SDS-PAGE; non-reducing SDS-PAGE of fractions of the Ni-IMAC purification of CTD1; disulphide-linked dimer.

For “CTD1, C-terminal domain of major ampullate spidroin 1 of Latrodectus hesperus (domain or fragment)”, the stoichiometry N (usually a count of units in the complex or per binding partner) was 2.
